Target: mLDH, mammalian lactate dehydrogenase (bovine) (UniProt P19858)
Experiment: ELONA
Settings: ELONA: 500 ng immobilized protein; aptamer in HMCKN (2 mM HEPES, 0.2 mM MgCl2, 0.2 mM CaCl2, 0.2 mM KCl, 15 mM NaCl, pH 7.4), 2 h, room temperature; washes …

Sequence: GCCTGTTGTGAGCCTCCTAACCAGCTCGTAGAAAAAAAAAGATATTGCTTCAATTATCTCCTCGCGTTCAATTAACCCAGCATGCTTATTCTTGTCTCCC [rLDH 4]
- binding signal: 0.053 OD450
